Laboratory results reported in the supplement of paper PMC12042874.
± gives the uncertainty stated by the source.

Experiment: amyloid nucleation score (Sup35N fusion, yeast selection) (log enrichment); library NNK2; higher = more nucleation; inactive = no reads after selection
In short: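 Plasmid inserts were Illumina-sequenced at input and output from psi-negative yeast expressing Sup35N fused to peptides of 20 random codons. The yeast were induced with 100 μM copper sulfate for 24 hours and grown 7 days at 30°C on medium lacking adenine and uracil, and sequences with under 100 input reads were excluded. Nucleation score is the DiMSum log enrichment of output over input reads, centred on the mode score of non-aggregating sequences.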

Substance	amyloid nucleation score
SPQRFDLGYGVYVCDTPK	-0.231 ± 0.38
GYNQEYRLSTMKAMLGRLLV	inactive
LFVLK	-0.843 ± 0.21
VSVLI	0.45 ± 0.44
VVNLIVKDDPWEGWLKSLVW	2.46 ± 0.18
KFDLSCNPNSPGSLRYTLNN	inactive
FWDSIKIHSKSLLSCIDGPW	2.35 ± 0.066
SSSNLG	inactive
GRIVRSVLSSIVCILMSYWM	0.821 ± 0.31
TLFSSRRYSVGERSQVTCLI	-0.492 ± 0.55
CTFPALSLPGPVSTQQSSGQ	3.47 ± 0.06
KAPRTIYPVVLQPAS	-0.484 ± 0.33
GETLSTDYLWQPTHA	0.877 ± 0.58
FLECTSNIDVAMSPWLTLLN	-0.505 ± 1.1
QLDGWELATHRWCVILYVGC	-0.471 ± 0.48
LYFDR	-0.417 ± 1.1
QVSYNLCNR	inactive
SSFIQGCQDSDTNFGGTSSC	inactive
EYRVYYSRLRSLSTEEPMAS	-0.299 ± 0.79
VYWWVANV	1.99 ± 0.26
LTKGRSFCVNPFHITVDGQE	-0.761 ± 0.23
KCLDSFDMSDMYSR	-0.632 ± 1.1
GLCYKFVRFSYA	2.16 ± 0.1
LDWGCILVQ	0.012 ± 0.43
AGWQCLCSLFLLKEITTCIS	-0.367 ± 0.56
ASAPEYHQVKIYIFQFTPRA	2.02 ± 0.094

Substance	amyloid nucleation score
RYLCSRVVMSYTCARTPETG	0.43 ± 0.35
FFSTTYNHNSDFAWDQAELY	0.016 ± 1.1
NFEHVASLIFGLLILDSQSL	-1.43 ± 0.49
YSSDYILSFNVNNTMVVSFE	5.59 ± 0.078
WSFVGSTLSRDGSHNQDVHW	3.58 ± 0.098
YPIIVFAVLCFEWETYWCSL	0.015 ± 0.76
HFTTLGILLRCRGLSVLPKV	-0.329 ± 0.39
TIIRRDSLESQRRHCPMVVV	0.351 ± 0.64
TVSYCVAYSMQQMLS	-0.072 ± 1.1
WPFRESVY	0.41 ± 0.5
RIYFTPRYLDIDFYWTLNAV	-0.598 ± 0.64
SNSGMTVKCNYVYSFVTGKS	0.816 ± 0.21
FFFMSDLYKSLSSAYDLGSI	inactive
HKKAFVCPRCMVPCRRLWHG	0.232 ± 0.25
CPIRMLSKNGCSTHSFNMAW	0.241 ± 0.8
FCRNIKDYLDYCHRGVGPKK	0.176 ± 0.76
HRGNTCTGSRCRLADRRHPS	1.79 ± 0.18
LFIVSDKTFYKGTGCSDFLV	-1.28 ± 1
VCSKHD	-0.78 ± 1.1
YLNWCSSSRNYLSMLYWPMV	-0.148 ± 0.5
WLRVTRLEIWQGKFSTNELT	-0.755 ± 1.1
MEYRGQVQGCSYPWVYRLGW	-0.078 ± 0.54
VLQRCRTAVKPYQHNNCLIM	2.26 ± 0.11
NGCQV	0.545 ± 0.6
SRHGMSLASR	-0.024 ± 0.46
RSKQRCGTTDSPLAMVSKRV	1.05 ± 0.31

Substance	amyloid nucleation score
NLNVIPDCLWFYDSRMLFFI	inactive
DLTHWSANSTCSSCVEFHLR	3.99 ± 0.086
DKSSMYSSTMRPL	0.06 ± 0.65
SVVWCWCSEW	0.602 ± 0.81
QKEENSWPGLIRCNLGVREG	0.092 ± 0.22
EMLKHCYTSTQSSYSFIYWR	-0.27 ± 0.65
YWFHDCMRCCGNKILLLPDI	-0.712 ± 1.1
MRCDTVMKSSYASVASMGL	inactive
ACMIEFRILRYRREMMSICS	6.489 ± 0.039
RTIVFTLWRDGITKFMVNRD	0.452 ± 0.43
RLYTREQLRTLWLSYMFLRK	-0.357 ± 0.29
RDNYEGLY	-1.05 ± 0.74
KIRNSGG	0.747 ± 0.56
QSHTGWYLVFV	0.05 ± 1
HIVAGCIVQLANILWDRAEG	0.57 ± 0.38
ARPVDMHTQTYALL	-0.284 ± 1.1
LIADSCFFIQGDHPMLSELY	0.888 ± 0.32
GDAIANCIVVWYGHAMPARY	2.06 ± 0.12
LALWCTWEVRLIDESAMTTF	0.467 ± 0.29
AINGHDRGLSKLGGRAGESD	0.589 ± 0.42
CVFPRFYIHDFSTLGTMYTL	4.24 ± 0.12
YRLIYFVVLFEFLSVNR	-0.089 ± 0.79
LRRYYQCGTRLLIRFRMLEV	1 ± 0.34
YRSVVDA	0.077 ± 0.54
DIRCDLGRVFN	-0.17 ± 0.79
LDCNDYRDVCVSGFYVCIEG	-0.597 ± 0.27

Substance	amyloid nucleation score
LAAGWGVLHELL	inactive
YLTLEMLAVDE	-0.52 ± 1.1
LSSTRDR	-1.24 ± 0.48
TFDWKTSKPYANKPLRFETS	0.284 ± 0.34
GARMSRSSGFSVQYNFSGQG	4.11 ± 0.093
IEGFRNDFLYVKISVGGAVV	inactive
LAGYSHTI	0.406 ± 0.46
YTGYGTWNLNIRNACNRVSW	inactive
NRWKHYTDGSTL	-0.02 ± 0.39
VRWIKVFHFP	-0.784 ± 0.76
CAMVKFY	-1.3 ± 0.62
CQLLMFGSMYVHSYERGTYW	2.67 ± 0.064
EITSKMSSWGSLTASALTIS	-0.104 ± 0.48
IDYLDTCFAVCFVGYTVCPT	0.111 ± 0.5
HKCRWSGPAVGSQGKDVIIL	1.12 ± 0.44
SQFSPNDLLLGSWKSDCPWR	-0.917 ± 0.54
ILTGILSLVAYASSPGAPCG	2.45 ± 0.22
LTTWNGCSDEC	-0.557 ± 1.1
IGLKVSSFNDKVLSGA	-0.285 ± 0.63
YNAWSSWYLGVLRPIGCCNG	9.703 ± 0.046
IDYQSGMPWVSMRMILKQ	0.158 ± 0.46
SGILREPVMIQVSVLQEQHW	5.025 ± 0.045
IWVYFTQHRWRLGKNVGQSC	0.586 ± 0.51
NSLCLLNRQ	0.241 ± 0.54
WHNDSTG	0.619 ± 0.22
PITVYWCCDNS	3.84 ± 0.087

Substance	amyloid nucleation score
SNCRTSFIQMVVYDCFGSFF	4.74 ± 0.09
TCLGSRWLT	0.653 ± 0.33
FLDQWDMCP	0.619 ± 0.81
TYSSNASGVTVFR	-0.772 ± 0.63
RVTKSVKLGPEFMLNHGRLT	3.33 ± 0.061
HASVHL	0.497 ± 0.34
VPQLSLQLVQRIFGFPSVIL	-0.288 ± 0.41
YSVQRCGYQDSKNNDVFLA	-0.043 ± 0.5
FSYRYIEDWCTNVGDLDVKL	-0.073 ± 0.26
NIYNPVD	-0.196 ± 1.1
MYRVEGL	inactive
IMIMTGWS	-0.984 ± 0.44
ASMLWLLLDELLKWNDGVNN	2.04 ± 0.099
DGTYISKVNSRCVEDGARPR	1.38 ± 0.34
RHPMSKKTSYKWYVVLTQCR	0.554 ± 0.31
LGYCGM	inactive
LRNLS	-0.919 ± 1
SYGDRLALQR	0.546 ± 0.8
RFGLISANLLSLDY	-0.938 ± 1.1
TSVVFWWGKGGKVGEPNEAG	0.147 ± 1.1
YLSVYCFMPVWDKWYRS	-1.57 ± 0.38
YMRMKW	3.46 ± 0.079
ALGINFSWACG	4.998 ± 0.043
VHRSSLASNGSLES	-0.398 ± 0.45
NNFATLSKL	inactive
